From patent US20240190946A1 (AUGMENTA BIOWORKS, published 2024)

Target: T1, NAC CoV2 Mosaic (SARS-COV-2)
T1 construct: also called NAC Mosaic (The Native Antigen Company)
Assay: ForteBio

B1: SC2 antibody 3396 (antibody, V domains shown)
VH: GVQLVESGGGLVQPGRSLRVSCAASGFTFADYAMHWVRQAPGKGLEWVSGISWNSGNIAYADSVKGRFTISRDNAKNSLYLQMDSLRPDDTALYYCVKASTLYYYFYMDVWGKGTTVTVSS
VL: QSALTQPPSASGSPGQSVTISCTGTSSDVGGYDYVSWYQQHPGKAPKFMIYEVSKRPSGVPDRFSGSKSGNTASLTVSGLQAEDEADYYCCSYAGSNNYVFGTGTKVTVLG
notes: also called Anti-SARS-COV-2 antibody 3396
For B1, the Kd was 21 nM.
